# Laboratory results from patent publication US10941182 (Amgen, dated 2021).
# Starred links: 1 amine or outer side, 2 acyl side, 3 side chain; linkers in the order of their positions; H or OH if unused. Non-standard residues stand in square brackets, D forms with d. Primed or numbered codes have the meaning given here. *: point of attachment. AC4Abu = α-carboxy-4-aminobutyric acid, O=C(C(CCN[*:1])C(=O)[*:3])[*:2]; Oic = O=C(O)[C@@H]1C[C@@H]2CCCC[C@@H]2N1; Phe(4-Cl) = N[C@@H](Cc1ccc(Cl)cc1)C(=O)O; γGlu = O=C(O)[C@H](CCC(=O)[*:2])N[*:1]; NMeR = CN[C@@H](CCCNC(=N)N)C(=O)O; Tridecanoyl = CCCCCCCCCCCCC(=O)*; hArg = N=C(N)NCCCC[C@H](N)C(=O)O; Cha = N[C@@H](CC1CCCCC1)C(=O)O; αMeL = CC(C)C[C@](C)(N)C(=O)O; Tle = CC(C)(C)[C@H](N)C(=O)O; αMeP = C[C@@]1(C(=O)O)CCCN1; β3hP = O=C(O)C[C@@H]1CCCN1; Nle = CCCC[C@H](N)C(=O)O; Pip′ = not defined here; AEEA = NCCOCCOCC(=O)O; Aib = CC(C)(N)C(=O)O; BLeu = β-leucine
# T1: human APJ receptor (human, UniProt P35414 1-380)
# T1 sequence (looked up): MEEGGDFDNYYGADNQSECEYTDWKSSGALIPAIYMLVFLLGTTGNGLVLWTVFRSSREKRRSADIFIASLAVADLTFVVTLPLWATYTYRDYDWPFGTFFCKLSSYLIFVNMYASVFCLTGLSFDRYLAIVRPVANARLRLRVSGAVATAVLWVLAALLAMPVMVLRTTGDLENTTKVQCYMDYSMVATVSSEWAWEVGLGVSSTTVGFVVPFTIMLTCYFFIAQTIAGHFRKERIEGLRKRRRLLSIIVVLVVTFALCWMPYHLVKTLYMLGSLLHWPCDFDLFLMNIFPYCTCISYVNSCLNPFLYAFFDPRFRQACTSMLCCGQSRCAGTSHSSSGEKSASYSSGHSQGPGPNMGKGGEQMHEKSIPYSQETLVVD
# T2: rat APJ receptor (rat, UniProt Q9JHG3 1-377)
# T2 sequence (looked up): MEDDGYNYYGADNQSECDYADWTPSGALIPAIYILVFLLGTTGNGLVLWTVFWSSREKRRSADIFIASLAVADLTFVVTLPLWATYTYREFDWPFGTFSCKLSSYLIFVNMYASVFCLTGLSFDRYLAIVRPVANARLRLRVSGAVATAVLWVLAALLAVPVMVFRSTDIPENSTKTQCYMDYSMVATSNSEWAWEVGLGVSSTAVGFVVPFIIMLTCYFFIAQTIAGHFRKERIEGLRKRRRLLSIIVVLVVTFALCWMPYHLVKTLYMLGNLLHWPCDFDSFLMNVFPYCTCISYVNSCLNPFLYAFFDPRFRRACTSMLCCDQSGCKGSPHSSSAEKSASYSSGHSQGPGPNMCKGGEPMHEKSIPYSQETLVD
# B1: Apelin polypeptide SEQ ID NO: 524 (peptide)
# peptide: Tridecanoyl-[γGlu][AEEA][AEEA][dQ]EP[NMeR][Cha]SHKG[Oic][Nle][Aib][Phe(4-Cl)]-OH
# SMILES: CCCCCCCCCCCCC(=O)N[C@@H](CCC(=O)NCCOCCOCC(=O)NCCOCCOCC(=O)N[C@H](CCC(N)=O)C(=O)N[C@@H](CCC(=O)O)C(=O)N1CCC[C@H]1C(=O)N(C)[C@@H](CCCNC(=N)N)C(=O)N[C@@H](CC1CCCCC1)C(=O)N[C@@H](CO)C(=O)N[C@@H](Cc1c[nH]cn1)C(=O)N[C@@H](CCCCN)C(=O)NCC(=O)N1[C@H](C(=O)N[C@@H](CCCC)C(=O)NC(C)(C)C(=O)N[C@@H](Cc2ccc(Cl)cc2)C(=O)O)C[C@@H]2CCCC[C@@H]21)C(=O)O
# B2: Apelin polypeptide SEQ ID NO: 475 (peptide)
# peptide: Tridecanoyl-[γGlu][AEEA][AEEA]QEP[NMeR]LSHKGP[Nle]P[Phe(4-Cl)]-OH
# SMILES: CCCCCCCCCCCCC(=O)N[C@@H](CCC(=O)NCCOCCOCC(=O)NCCOCCOCC(=O)N[C@@H](CCC(N)=O)C(=O)N[C@@H](CCC(=O)O)C(=O)N1CCC[C@H]1C(=O)N(C)[C@@H](CCCNC(=N)N)C(=O)N[C@@H](CC(C)C)C(=O)N[C@@H](CO)C(=O)N[C@@H](Cc1c[nH]cn1)C(=O)N[C@@H](CCCCN)C(=O)NCC(=O)N1CCC[C@H]1C(=O)N[C@@H](CCCC)C(=O)N1CCC[C@H]1C(=O)N[C@@H](Cc1ccc(Cl)cc1)C(=O)O)C(=O)O
# B3: Apelin polypeptide SEQ ID NO: 553 (peptide)
# peptide: Tridecanoyl-[γGlu][AEEA][AEEA][dQ]R[β3hP][NMeR][αMeL]SHKG[Oic][Nle][αMeP][Phe(4-Cl)]-OH
# SMILES: CCCCCCCCCCCCC(=O)N[C@@H](CCC(=O)NCCOCCOCC(=O)NCCOCCOCC(=O)N[C@H](CCC(N)=O)C(=O)N[C@@H](CCCNC(=N)N)C(=O)N1CCC[C@H]1CC(=O)N(C)[C@@H](CCCNC(=N)N)C(=O)N[C@@](C)(CC(C)C)C(=O)N[C@@H](CO)C(=O)N[C@@H](Cc1c[nH]cn1)C(=O)N[C@@H](CCCCN)C(=O)NCC(=O)N1[C@H](C(=O)N[C@@H](CCCC)C(=O)N2CCC[C@@]2(C)C(=O)N[C@@H](Cc2ccc(Cl)cc2)C(=O)O)C[C@@H]2CCCC[C@@H]21)C(=O)O
# B4: Apelin polypeptide SEQ ID NO: 397 (peptide)
# peptide: Tridecanoyl-[AC4Abu][AEEA][AEEA]Q[NMeR][αMeL]SHKG[Oic][Nle]P[Phe(4-Cl)]-OH
# SMILES: CCCCCCCCCCCCC(=O)NCCC(C(=O)O)C(=O)NCCOCCOCC(=O)NCCOCCOCC(=O)N[C@@H](CCC(N)=O)C(=O)N(C)[C@@H](CCCNC(=N)N)C(=O)N[C@@](C)(CC(C)C)C(=O)N[C@@H](CO)C(=O)N[C@@H](Cc1c[nH]cn1)C(=O)N[C@@H](CCCCN)C(=O)NCC(=O)N1[C@H](C(=O)N[C@@H](CCCC)C(=O)N2CCC[C@H]2C(=O)N[C@@H](Cc2ccc(Cl)cc2)C(=O)O)C[C@@H]2CCCC[C@@H]21
# B5: Apelin polypeptide SEQ ID NO: 503 (peptide)
# peptide: XXXQRPRLSHKGXXPF
# modifications: {TDA}[AC4Abu][Aeea][Aeea]qR[aMePro][hArg][BLeu]SHKG[Pip][Nle][aMePro][4-Cl-F]{COOH}
# B6: Apelin polypeptide SEQ ID NO: 525 (peptide)
# peptide: Tridecanoyl-[γGlu][AEEA][AEEA][dQ][dE]P[NMeR][Cha]SHKG[Oic][Nle][Aib][Phe(4-Cl)]-OH
# SMILES: CCCCCCCCCCCCC(=O)N[C@@H](CCC(=O)NCCOCCOCC(=O)NCCOCCOCC(=O)N[C@H](CCC(N)=O)C(=O)N[C@H](CCC(=O)O)C(=O)N1CCC[C@H]1C(=O)N(C)[C@@H](CCCNC(=N)N)C(=O)N[C@@H](CC1CCCCC1)C(=O)N[C@@H](CO)C(=O)N[C@@H](Cc1c[nH]cn1)C(=O)N[C@@H](CCCCN)C(=O)NCC(=O)N1[C@H](C(=O)N[C@@H](CCCC)C(=O)NC(C)(C)C(=O)N[C@@H](Cc2ccc(Cl)cc2)C(=O)O)C[C@@H]2CCCC[C@@H]21)C(=O)O
# B7: Apelin polypeptide SEQ ID NO: 516 (peptide)
# peptide: Tridecanoyl-[γGlu][AEEA][AEEA][dQ]R[β3hP][NMeR][Cha]SHKG[Oic][Nle][Aib][Phe(4-Cl)]-OH
# SMILES: CCCCCCCCCCCCC(=O)N[C@@H](CCC(=O)NCCOCCOCC(=O)NCCOCCOCC(=O)N[C@H](CCC(N)=O)C(=O)N[C@@H](CCCNC(=N)N)C(=O)N1CCC[C@H]1CC(=O)N(C)[C@@H](CCCNC(=N)N)C(=O)N[C@@H](CC1CCCCC1)C(=O)N[C@@H](CO)C(=O)N[C@@H](Cc1c[nH]cn1)C(=O)N[C@@H](CCCCN)C(=O)NCC(=O)N1[C@H](C(=O)N[C@@H](CCCC)C(=O)NC(C)(C)C(=O)N[C@@H](Cc2ccc(Cl)cc2)C(=O)O)C[C@@H]2CCCC[C@@H]21)C(=O)O
# B8: Apelin polypeptide SEQ ID NO: 520 (peptide)
# peptide: Tridecanoyl-[γGlu][AEEA][AEEA]QP[NMeR][Cha]SHKG[Oic][Nle][Aib][Phe(4-Cl)]-OH
# SMILES: CCCCCCCCCCCCC(=O)N[C@@H](CCC(=O)NCCOCCOCC(=O)NCCOCCOCC(=O)N[C@@H](CCC(N)=O)C(=O)N1CCC[C@H]1C(=O)N(C)[C@@H](CCCNC(=N)N)C(=O)N[C@@H](CC1CCCCC1)C(=O)N[C@@H](CO)C(=O)N[C@@H](Cc1c[nH]cn1)C(=O)N[C@@H](CCCCN)C(=O)NCC(=O)N1[C@H](C(=O)N[C@@H](CCCC)C(=O)NC(C)(C)C(=O)N[C@@H](Cc2ccc(Cl)cc2)C(=O)O)C[C@@H]2CCCC[C@@H]21)C(=O)O
# B9: Apelin polypeptide SEQ ID NO: 504 (peptide)
# peptide: XXXQRPRLSHKGPXPF
# modifications: {TDA}[AC4Abu][Aeea][Aeea]qR[aMePro][hArg][BLeu]SHKG[aMePro][Nle][aMePro][4-Cl-F]{COOH}
# B10: Apelin polypeptide SEQ ID NO: 433 (peptide)
# peptide: Tridecanoyl-[γGlu][AEEA][AEEA][dQ][hArg]P[dR][Tle]SHKG[Oic][Nle]P[Phe(4-Cl)]-OH
# SMILES: CCCCCCCCCCCCC(=O)N[C@@H](CCC(=O)NCCOCCOCC(=O)NCCOCCOCC(=O)N[C@H](CCC(N)=O)C(=O)N[C@@H](CCCCNC(=N)N)C(=O)N1CCC[C@H]1C(=O)N[C@H](CCCNC(=N)N)C(=O)N[C@H](C(=O)N[C@@H](CO)C(=O)N[C@@H](Cc1c[nH]cn1)C(=O)N[C@@H](CCCCN)C(=O)NCC(=O)N1[C@H](C(=O)N[C@@H](CCCC)C(=O)N2CCC[C@H]2C(=O)N[C@@H](Cc2ccc(Cl)cc2)C(=O)O)C[C@@H]2CCCC[C@@H]21)C(C)(C)C)C(=O)O
# Biological target: T1, human APJ receptor
# Test: cell-based or functional assay
row,EC50 Human APJ Receptor (GTPγS assay),Binder
1,0.584 nM,Tridecanoyl-[AC4Abu][AEEA][AEEA]QR[αMeP][hArg][BLeu]SHKG[Oic][Nle]P[Phe(4-Cl)]-OH [Apelin polypeptide SEQ ID NO: 392]
2,25.6 nM,Tridecanoyl-[γGlu][AEEA][AEEA][dQ]R[αMeP][Nle][BLeu]SHKG[Oic][Nle][αMeP][Phe(4-Cl)]-OH [Apelin polypeptide SEQ ID NO: 523]
3,18 nM,Tridecanoyl-[γGlu][AEEA][AEEA][dQ]R[αMeP][hArg][BLeu]SHKG[Oic][Nle][β3hP][Phe(4-Cl)]-OH [Apelin polypeptide SEQ ID NO: 556]
4,53.2 nM,B1
5,10.3 nM,B2
6,2.23 nM,B3
7,6.36 nM,B4
8,0.523 nM,Tridecanoyl-[γGlu][AEEA][AEEA][dQ]R[β3hP][hArg][BLeu]SHKG[Oic][Nle][Aib][Phe(4-Cl)]-OH [Apelin polypeptide SEQ ID NO: 522]
9,0.16 nM,B5
10,0.456 nM,Tridecanoyl-[γGlu][AEEA][AEEA][dQ]R[αMeP][hArg][BLeu]SHKG[Oic][Nle][αMeP][Phe(4-Cl)]-OH [Apelin polypeptide SEQ ID NO: 502]
11,158 nM,B6
12,0.0707 nM,Tridecanoyl-[γGlu][AEEA][AEEA][dQ]R[αMeP][hArg][BLeu]SHKG[Oic][Nle][Aib][Phe(4-Cl)]-OH [Apelin polypeptide SEQ ID NO: 505]
13,0.557 nM,B7
14,9.18 nM,B8
15,1.39 nM,B9
16,12.8 nM,B10
17,9.74 nM,Tridecanoyl-[γGlu][AEEA][AEEA][dQ]R[αMeP][hArg][BLeu]SHKG[Oic][Nle][Phe(4-Cl)]-OH [Apelin polypeptide SEQ ID NO: 519]
18,10.9 nM,Tridecanoyl-[γGlu][AEEA][AEEA][dQ]R[αMeP][hArg][BLeu]SHKG[Pip′][Nle][Phe(4-Cl)]-OH [Apelin polypeptide SEQ ID NO: 501]

# Biological target: T2, rat APJ receptor
# Test: cell-based or functional assay
row,EC50 Rat APJ Receptor (GTPγS assay),Binder
1,0.856 nM,Tridecanoyl-[AC4Abu][AEEA][AEEA]QR[αMeP][hArg][BLeu]SHKG[Oic][Nle]P[Phe(4-Cl)]-OH [Apelin polypeptide SEQ ID NO: 392]
2,71.9 nM,Tridecanoyl-[γGlu][AEEA][AEEA][dQ]R[αMeP][Nle][BLeu]SHKG[Oic][Nle][αMeP][Phe(4-Cl)]-OH [Apelin polypeptide SEQ ID NO: 523]
3,69.1 nM,Tridecanoyl-[γGlu][AEEA][AEEA][dQ]R[αMeP][hArg][BLeu]SHKG[Oic][Nle][β3hP][Phe(4-Cl)]-OH [Apelin polypeptide SEQ ID NO: 556]
4,346 nM,B1
5,35.9 nM,B2
6,2.01 nM,B3
7,16.5 nM,B4
8,6.77 nM,Tridecanoyl-[γGlu][AEEA][AEEA][dQ]R[β3hP][hArg][BLeu]SHKG[Oic][Nle][Aib][Phe(4-Cl)]-OH [Apelin polypeptide SEQ ID NO: 522]
9,2.12 nM,B5
10,4.81 nM,Tridecanoyl-[γGlu][AEEA][AEEA][dQ]R[αMeP][hArg][BLeu]SHKG[Oic][Nle][αMeP][Phe(4-Cl)]-OH [Apelin polypeptide SEQ ID NO: 502]
11,243 nM,B6
12,0.516 nM,Tridecanoyl-[γGlu][AEEA][AEEA][dQ]R[αMeP][hArg][BLeu]SHKG[Oic][Nle][Aib][Phe(4-Cl)]-OH [Apelin polypeptide SEQ ID NO: 505]
13,2.02 nM,B7
14,56.1 nM,B8
15,23.1 nM,B9
16,19.8 nM,B10
17,44.7 nM,Tridecanoyl-[γGlu][AEEA][AEEA][dQ]R[αMeP][hArg][BLeu]SHKG[Oic][Nle][Phe(4-Cl)]-OH [Apelin polypeptide SEQ ID NO: 519]
18,68.2 nM,Tridecanoyl-[γGlu][AEEA][AEEA][dQ]R[αMeP][hArg][BLeu]SHKG[Pip′][Nle][Phe(4-Cl)]-OH [Apelin polypeptide SEQ ID NO: 501]
